The record followed here is paper doi:10.1101/2025.05.09.649859.

Holding throughout (details): 25 mM Tris-HCl pH 7.5, 2 mM MgCl2, 100 mM KCl (FP, 21 C) or 100-400 mM KCl (BLI, IgG on Protein A, 25 C)
The test system of series [1] is J2 IgG. As to the kind of experiment: fluorescence polarization. On the technique in general: Fluorescence polarisation rises when a labelled molecule tumbles more slowly, as on binding a larger partner.
Series [2] has as its system J2 IgG. As to the kind of experiment: BLI. On the technique in general: BLI is a label-free optical method that tracks binding on a fibre tip over time.
Another series concerns J2 IgG HC Y54A. As to the kind of experiment: BLI.
The subject of a further series is J2 IgG LC Y31F. In words: BLI.
The next series relates to J2 IgG HC Y52F. As to the kind of experiment: BLI.
The next series relates to J2 IgG HC Y54F. As to the kind of experiment: BLI.
In another series the test system is J2 IgG LC Y31A. As to the kind of experiment: BLI.
Another series concerns J2 IgG HC Y50F. In words: BLI.
Another series has as its system J2 IgG LC Y38F. As to the kind of experiment: BLI.
Another series concerns J2 IgG HC A30P. As to the kind of experiment: BLI.
The test system of series [3] is J2 IgG. As to the kind of experiment: competition FP.

Take “GGCAAGGGUAUCAUGGCGGACGACCGGGGUUCGAACCCCGGAUCCGGCCGUCCGCCGUGAUCCAUGCGGUUACCGCCCGCGUGUCGAACCCAGGUGUGCC [VA-I RNA]”: the dissociation constant (Kd) (in general, a measure of binding affinity in units of concentration) in the series on J2 IgG [1] was 32 nM.

Take “GUUGUAAAGAAGGU / ACCUUCUUUACAAC [14-bp dsRNA]”: in the series on J2 IgG [2], the Kd worked out at 2100 nM.

With “GUUGUAAAGAAGGUCAAUAU / AUAUUGACCUUCUUUACAAC [20-bp dsRNA]”, the Kd was found to be 120 nM with J2 IgG [2]; 300 nM in the series with J2 IgG HC Y54A; 360 nM in the series on J2 IgG LC Y31F; 220 nM in the series on J2 IgG HC Y52F; 710 nM in the series with J2 IgG HC Y54F; 940 nM with J2 IgG LC Y31A. In addition, the Kd in the series on J2 IgG HC Y50F was found to be 430 nM; in the series on J2 IgG LC Y38F, 150 nM; with J2 IgG HC A30P, 120 nM.

Take “GUUGUAAAGAAGGUCAAUAUUGUACCAAAC / GUUUGGUACAAUAUUGACCUUCUUUACAAC [30-bp dsRNA]”: the equilibrium dissociation constant (Kd) in the series on J2 IgG [2] is 12 nM.

Regarding “GUUGUAAAGAAGGUCAAUAUUGUACCAAACUUGAUGGAAA / UUUCCAUCAAGUUUGGUACAAUAUUGACCUUCUUUACAAC [40-bp dsRNA]”, the dissociation constant (Kd) with J2 IgG [2] is 80 nM. This Kd lies about 6.7-fold higher than the previous one.

Take “GUUGUAAAGAAGGUCAAUAUUGUACCAAACUUGAUGGAAAAGAACAACGU / ACGUUGUUCUUUUCCAUCAAGUUUGGUACAAUAUUGACCUUCUUUACAAC [50-bp dsRNA]”: the IC50 – broadly, the point on the concentration scale where inhibition reaches its midpoint – in the series with J2 IgG [3] stood at 17 nM. The sequence further gave a dissociation constant Kd with J2 IgG [2] of 22 nM.
